Reference: patent publication US20060233704A1, “Prochelator for the preparation of radiometal labeled molecules having improved biological properties” (priority 2000, published 2006)

Assay type: physicochemical
Procedure: In addition, the stability is higher. The reaction of ^90Y-DOTATOC or ^90Y-DOTAGA at 37° C. with the chelator DTPA results in ^90Y-DTPA.

## C[C@@H](O)[C@@H]1NC(=O)[C@H](CCCCN)NC(=O)[C@@H](Cc2c[nH]c3ccccc23)NC(=O)[C@H](Cc2ccc(O)cc2)NC(=O)[C@@H](NC(=O)[C@@H](Cc2ccccc2)NC(=O)CCC(C(=O)O)N2CCN(CC(=O)O)CCN(CC(=O)O)CCN(CC(=O)O)CC2)CSSC[C@@H](C(=O)N[C@H](CO)[C@@H](C)O)NC1=O (single isomer, unassigned) [DOTAGA]
  half-life: 79 h
